The results in this text go back to patent US20220273767A1 (SYNTHORX, published 2022).

Assay [1] addresses T1, IL-10 receptor signaling complex on mouse splenocytes (CD8 T cells, NK cells, B cells) (mouse, UniProt Q61727 17-575; Q61190 20-349).
T1 sequence (looked up) 1: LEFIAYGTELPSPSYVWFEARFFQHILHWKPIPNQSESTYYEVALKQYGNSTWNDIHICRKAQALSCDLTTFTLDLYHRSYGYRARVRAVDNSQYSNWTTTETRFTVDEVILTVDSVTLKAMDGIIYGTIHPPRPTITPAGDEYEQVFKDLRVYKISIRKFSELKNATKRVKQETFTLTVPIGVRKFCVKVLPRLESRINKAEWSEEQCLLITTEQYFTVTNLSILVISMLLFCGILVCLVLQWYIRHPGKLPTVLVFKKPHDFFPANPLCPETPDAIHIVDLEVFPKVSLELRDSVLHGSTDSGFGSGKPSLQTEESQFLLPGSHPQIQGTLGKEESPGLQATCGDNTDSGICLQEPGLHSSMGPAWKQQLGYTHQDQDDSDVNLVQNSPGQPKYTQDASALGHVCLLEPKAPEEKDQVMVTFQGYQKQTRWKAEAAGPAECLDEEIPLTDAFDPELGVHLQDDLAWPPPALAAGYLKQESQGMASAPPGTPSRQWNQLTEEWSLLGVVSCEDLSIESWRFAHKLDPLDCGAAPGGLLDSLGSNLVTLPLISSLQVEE
T1 sequence (looked up) 2: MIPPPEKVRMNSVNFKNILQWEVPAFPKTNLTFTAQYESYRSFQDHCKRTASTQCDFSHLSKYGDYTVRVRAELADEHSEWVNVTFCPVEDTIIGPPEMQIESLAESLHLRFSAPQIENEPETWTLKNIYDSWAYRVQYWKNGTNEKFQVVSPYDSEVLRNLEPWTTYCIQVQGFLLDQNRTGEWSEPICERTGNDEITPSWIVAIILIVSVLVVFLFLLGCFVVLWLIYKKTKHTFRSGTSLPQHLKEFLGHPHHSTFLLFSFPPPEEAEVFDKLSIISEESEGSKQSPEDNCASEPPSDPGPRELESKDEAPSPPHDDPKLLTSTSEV
Description: cell-based or functional assay.

For assay [2], the target named is T1, IL-10 receptor signaling complex on …. Nature of the assay: cell-based or functional assay. The source holds these as a separate data set.

B1: Wild-type His-IL-10 (ligand)
chain: MHHHHHHGSSENLYFQSPGQGTQSENSCTHFPGNLPNMLRDLRDAFSRVKTFFQMKDQLDNLLLKESLLEDFKGYLGCQALSEMIQFYLEEVMPQAENQDPDIKAHVNSLGENLKTLRLRLRRCHRFLPCENKSKAVEQVKNAFNKLQEKGIYKAMSEFDIFINYIEAYMTMKIRN
B1: in assay [1], the “EC50, STAT3 phosphorylation, B cells, Balb/c mouse splenocytes” value amounted to 1.3 ng/mL; the “EC50, STAT3 phosphorylation, CD8 T cells, Balb/c mouse splenocytes” value amounted to 4.07 ng/mL; the “EC50, STAT3 phosphorylation, NK cells, Balb/c mouse splenocytes” value worked out at 1.08 ng/mL. Also, in assay [2], the “EC50, STAT3 phosphorylation, B cells, B57BL/6 mouse splenocytes” value came to 0.83 ng/mL; the “EC50, STAT3 phosphorylation, CD8 T cells, B57BL/6 mouse splenocytes” value was determined as 3.65 ng/mL; the “EC50, STAT3 phosphorylation, NK cells, B57BL/6 mouse splenocytes” value is 1.06 ng/mL.
